Data on one molecule can be found in paper PMC10311464.

The target in the data set is hnRNP D0 isoform 3, Myc-DDK-tagged (Origene RC200660) (UniProt Q14103-3 1-306). The data set can be described thus: EMSA. (Mobility shift assays separate free from complexed probe on a gel.)

B1: rs678849 T allele probe (dsDNA)
DNA 1: TCAAAAGTACCTGCT
DNA 2: AGCAGGTACTTTTGA
As for B1, the binding result was “binds”.
